# Experimental data taken from the supplement of paper PMC10201428.
# ± gives the standard deviation of the averaged measurements.
# Test system: VchCAST RNA-guided transposition machinery (E. coli BL21(DE3) host, lacZ target)
# Assay: relative integration efficiency (T-RL orientation) vs wild-type transposon end (log2 (normalized fold change)); transposon end mutated: left end; higher = more efficient transposition
# Description: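 Pooled, barcoded VchCAST (Tn6677) mini-transposon donor libraries; each variable transposon-end sequence sits in a fixed pDonor mini-transposon context (10-bp barcode and cargo not included). Left- or right-end libraries were co-transformed with pEffector (TniQ-Cascade, TnsABC, lacZ crRNA, T7, 0.1 mM IPTG) into E. coli BL21(DE3) and grown 18 h at 37 C. T-LR and T-RL junction amplicons were sequenced; output/input barcode fold change was normalised to the mean of four wild-type barcodes and log2-transformed. Two biological replicates; zero-count/undetected variants carry floor values (-10 / -15), censored here. Barcode uncoupling by PCR recombination adds noise.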
row,Sequence,relative integration efficiency (log2)
1,AATGTTGTTGATGCAACCATAAAGTGAGCGGGCCGCCGGCGGGCGCCGACTACCAGGCCAACACCCCACCAACGCGCGGTCGCGAGACACCCCACCAACGCCTGGTCGCGGGGGTGTCCGATCTGATTTCAGCAAAACTACTGCAGTAAGAA,-8.13 ± 0.57
2,AATGTTGTTGATGCAACCATAAAGTGATATAATTATTTATAATCAGCAACTTAACCACAAAACAACCATATATTGATATCTCACAAAACAACCATAAGTTGATATTTTTGTGAATCGAGTATTTCAGCAAAACTACTGCAGTAAGAAAGTTA,-6.82 ± 0.68
3,AATGTTGTTGATGCAACCATAAAGTGATATTATAATTATTTATAATCAGCAACTTAACCACAAAACAACCATATATTGATATCTCACAAAACAACCATAAGTTGATATTTTTGTGAATCGAGTATTTCAGCAAAACTACTGCAGTAAGAAAG,-5.22 ± 1.1
4,AATGTTGTTGATGCAACCATAAAGTGATATTTAAGAATTATGTCGTTCTAAACAAGAGATATTAGAACAACCATATATTGATATCTCACAAAACAACCATAAGTTGATATTTTTGTGAATCGAGTATTTCAGCAAAACTACTGCAGTAAGAA,-4.29 ± 1.2
5,AATGTTGTTGATGCAACCATAAAGTGATATTTAATAACTTCGTATAGCATACATTATACGAAGTTATCAACCATATATTGATATCTCACAAAACAACCATAAGTTGATATTTTTGTGAATCGAGTATTTCAGCAAAACTACTGCAGTAAGAA,-4.52 ± 0.95
6,AATGTTGTTGATGCAACCATAAAGTGATATTTAATAACTTCGTATAGTATACCTTATACGAAGTTATCAACCATATATTGATATCTCACAAAACAACCATAAGTTGATATTTTTGTGAATCGAGTATTTCAGCAAAACTACTGCAGTAAGAA,-3.19 ± 0.87
7,AATGTTGTTGATGCAACCATAAAGTGATATTTAATAATTACAACCATAAAGTGATATTTAACTTAACCAACCATATATTGATATCTCACAAAACAACCATAAGTTGATATTTTTGTGAATCGAGTATTTCAGCAAAACTACTGCAGTAAGAA,-7.98 ± 1.5
8,AATGTTGTTGATGCAACCATAAAGTGATATTTAATAATTATCAACCATATATTGATATCTCACAAAACAACCATAAGTTGATATTTTTGTGAATCGAGTATTTCAGCAAAACTACTGCAGTAAGAAAGTTACTTCGTGGTATGGGAGGATCA,-7.99 ± 0.76
9,AATGTTGTTGATGCAACCATAAAGTGATATTTAATAATTATGGCGCCGACTACCAGGCCAACACCCCACCAACGCGCGGTCGCGAGACACCCCACCAACGCCTGGTCGCGGGGGTGTCCGATCTGATTTCAGCAAAACTACTGCAGTAAGAA,-6.86 ± 1.3
10,AATGTTGTTGATGCAACCATAAAGTGATATTTAATAATTATTCAACCATAAAGTGATATTTAACTTACAACCATATATTGATATCTCACAAAACAACCATAAGTTGATATTTTTGTGAATCGAGTATTTCAGCAAAACTACTGCAGTAAGAA,-3.81 ± 1.1
11,AATGTTGTTGATGCAACCATAAAGTGATATTTAATAATTATTTAGCCGACTACCAGGCCAACACCCCACCAACGCGCGGTCGCGAGACACCCCACCAACGCCTGGTCGCGGGGGTGTCCGATCTGATTTCAGCAAAACTACTGCAGTAAGAA,-7.02 ± 1.2
12,AATGTTGTTGATGCAACCATAAAGTGATATTTAATAATTATTTATAACAACCATAAAGTGATATTTACAACCATATATTGATATCTCACAAAACAACCATAAGTTGATATTTTTGTGAATCGAGTATTTCAGCAAAACTACTGCAGTAAGAA,-6.17 ± 1.2
13,AATGTTGTTGATGCAACCATAAAGTGATATTTAATAATTATTTATAACAACCATATATTGATATCTCACAAAACAACCATAAGTTGATATTTTTCAGCAACTTAACCACAAAATGTGAATCGAGTATTTCAGCAAAACTACTGCAGTAAGAA,-5.63 ± 0.81
14,AATGTTGTTGATGCAACCATAAAGTGATATTTAATAATTATTTATAACAACCATATATTGATATCTCACAAAACAACCATAAGTTGATATTTTTGTGAATCGAGTATTTCAGCAAAACTACTGCAGTAAGAAAGTTACTTCGTGGTATGGGA,-6.45 ± 1
15,AATGTTGTTGATGCAACCATAAAGTGATATTTAATAATTATTTATAATCACAACCATATATTGATATCTCGCAACTTAACCACAAAAACAAAACAACCATAAGTTGATATTTTTGTGAATCGAGTATTTCAGCAAAACTACTGCAGTAAGAA,-6.71 ± 0.83
16,AATGTTGTTGATGCAACCATAAAGTGATATTTAATAATTATTTATAATCAGACCAGGCCAACACCCCACCAACGCGCGGTCGCGAGACACCCCACCAACGCCTGGTCGCGGGGGTGTCCGATCTGATTTCAGCAAAACTACTGCAGTAAGAA,-6.56 ± 1.8
17,AATGTTGTTGATGCAACCATAAAGTGATATTTAATAATTATTTATAATCAGCAAAGGCCAACACCCCACCAACGCGCGGTCGCGAGACACCCCACCAACGCCTGGTCGCGGGGGTGTCCGATCTGATTTCAGCAAAACTACTGCAGTAAGAA,-6.56 ± 1.3

row,Sequence,relative integration efficiency (log2)
1,AATGTTGTTGATGCAACCATAAAGTGATATTTAATAATTATTTATAATCAGCAACAACCATATATTGATATCTCACAAAACAACCATAAGTTGATATTTTTGTGAATCGAGTATTTCAGCAAAACTACTGCAGTAAGAAAGTTACTTCGTGG,-7.72 ± 1.1
2,AATGTTGTTGATGCAACCATAAAGTGATATTTAATAATTATTTATAATCAGCAACAACCATATATTGATATCTCCTTAACCACAAAAACAAAACAACCATAAGTTGATATTTTTGTGAATCGAGTATTTCAGCAAAACTACTGCAGTAAGAA,-6.46 ± 1.4
3,AATGTTGTTGATGCAACCATAAAGTGATATTTAATAATTATTTATAATCAGCAACCAACCATATATTGATATCTCACAAAACAACCATAAGTTGATATTTTTGTGAATCGAGTATTTCAGCAAAACTACTGCAGTAAGAAAGTTACTTCGTG,-6.44 ± 0.52
4,AATGTTGTTGATGCAACCATAAAGTGATATTTAATAATTATTTATAATCAGCAACCAACCATATATTGATATCTCTTAACCACAAAAACAAAACAACCATAAGTTGATATTTTTGTGAATCGAGTATTTCAGCAAAACTACTGCAGTAAGAA,-5.89 ± 1.6
5,AATGTTGTTGATGCAACCATAAAGTGATATTTAATAATTATTTATAATCAGCAACCATATATTGATATCTCACAAAACAACCATAAGTTGATATTTTTGTGAATCGAGTATTTCAGCAAAACTACTGCAGTAAGAAAGTTACTTCGTGGTAT,-8.36 ± 0.35
6,AATGTTGTTGATGCAACCATAAAGTGATATTTAATAATTATTTATAATCAGCAACCATATATTGATATCTCCAACTTAACCACAAAAACAAAACAACCATAAGTTGATATTTTTGTGAATCGAGTATTTCAGCAAAACTACTGCAGTAAGAA,-6.03 ± 0.52
7,AATGTTGTTGATGCAACCATAAAGTGATATTTAATAATTATTTATAATCAGCAACGGCCAACACCCCACCAACGCGCGGTCGCGAGACACCCCACCAACGCCTGGTCGCGGGGGTGTCCGATCTGATTTCAGCAAAACTACTGCAGTAAGAA,-6.79 ± 1.6
8,AATGTTGTTGATGCAACCATAAAGTGATATTTAATAATTATTTATAATCAGCAACTCAACCATATATTGATATCTCTAACCACAAAAACAAAACAACCATAAGTTGATATTTTTGTGAATCGAGTATTTCAGCAAAACTACTGCAGTAAGAA,-4.84 ± 0.92
9,AATGTTGTTGATGCAACCATAAAGTGATATTTAATAATTATTTATAATCAGCAACTTAACCAACCATATATTGATATCTCACAAAACAACCATAAGTTGATATTTTTGTGAATCGAGTATTTCAGCAAAACTACTGCAGTAAGAAAGTTACT,-5.17 ± 1.5
10,AATGTTGTTGATGCAACCATAAAGTGATATTTAATAATTATTTATAATCAGCAACTTAACCAACCATATATTGATATCTCCACAAAAACAAAACAACCATAAGTTGATATTTTTGTGAATCGAGTATTTCAGCAAAACTACTGCAGTAAGAA,-2.66 ± 0.88
11,AATGTTGTTGATGCAACCATAAAGTGATATTTAATAATTATTTATAATCAGCAACTTAACCACAAAACAACACGCGCGGTCGCGAGACACCCCACCAACGCCTGGTCGCGGGGGTGTCCGATCTGATTTCAGCAAAACTACTGCAGTAAGAA,-7.6 ± 2.4
12,AATGTTGTTGATGCAACCATAAAGTGATATTTAATAATTATTTATAATCAGCAACTTAACCACAAAACAACCATATATGTCGCGAGACACCCCACCAACGCCTGGTCGCGGGGGTGTCCGATCTGATTTCAGCAAAACTACTGCAGTAAGAA,-6.15 ± 1.3
13,AATGTTGTTGATGCAACCATAAAGTGATATTTAATAATTATTTATAATCAGCAACTTAACCACAAAACAACCATATATTGATAACAAAACAACCATAAGTTGATATTTTTGTGAATCGAGTATTTCAGCAAAACTACTGCAGTAAGAAAGTT,-4.08 ± 0.82
14,AATGTTGTTGATGCAACCATAAAGTGATATTTAATAATTATTTATAATCAGCAACTTAACCACAAAACAACCATATCGGTCGCGAGACACCCCACCAACGCCTGGTCGCGGGGGTGTCCGATCTGATTTCAGCAAAACTACTGCAGTAAGAA,-6.09 ± 0.98
15,AATGTTGTTGATGCAACCATAAAGTGATATTTAATAATTATTTATAATCAGCAACTTAACCACAAAAGTTGGTATATAACTATAGAGACAAAAGTTGGTATTCAACTATAAAATGTGAATCGAGTATTTCAGCAAAACTACTGCAGTAAGAA,-6.13 ± 2.2
16,AATGTTGTTGATGCAACCATAAAGTGATATTTAATAATTATTTATAATCAGCAACTTAACCACAAAATGTGAATCGAGTATTTCAGCAAAACTACTGCAACCATATATTGATATCTCACAAAACAACCATAAGTTGATATTTTCAGTAAGAA,-6.39 ± 0.78
